According to patent US20150147318A1 (ZOETIS SERVICES, published 2015):
Numbering of substitutions follows the chain as printed. Names and notes keep the numbering of the source.

Experiments:
[1] = target: T1, recombinant canine Nerve Growth Factor (Canis lupus familiaris NGF) (canine (Canis lupus familiaris), UniProt Q29074 110-229 (pig entry), limits assumed); assay: SPR, Biacore T100, dog NGF; run 11/29; comment 'Agg?'
T1 construct: also called canine NGF; Dog NGF
T1 chain: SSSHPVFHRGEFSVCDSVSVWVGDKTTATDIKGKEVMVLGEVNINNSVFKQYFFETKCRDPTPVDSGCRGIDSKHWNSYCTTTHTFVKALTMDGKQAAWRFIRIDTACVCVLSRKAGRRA

[2] = target: T1, recombinant canine Nerve Growth Factor …; assay: SPR, Biacore T100, dog NGF; run 11/24; comment 'Agg?'
[3] = target: T1, recombinant canine Nerve Growth Factor …; assay: SPR, 1:1 binding fit, canine NGF
[4] = target: T1, recombinant canine Nerve Growth Factor …; assay: SPR, Biacore T100, dog NGF; run 11/22
[5] = target: T1, recombinant canine Nerve Growth Factor …; assay: cell-based or functional assay
[6] = target: T1, recombinant canine Nerve Growth Factor …; assay: SPR trkA inhibition: mAb pre-incubated with NGF, binding of NGF to trkA measured in RU

B1: LTM135 (HC G103A, LC H32N) (antibody, V domains shown)
VH: EVQLVESGGDLARPGGSLKLSCVVSGFSLIGYDINWVRQAPGKGLQWVTMIWGDGTTDYNSALKSRFTVSRDNAMNTVYLQMNSLRVEDTAVYYCARGGYYYATSYYFDYWGQGTLVTVSS
VL: DIVMTQTPLSLSVSPGETASISCRASQDISNNLNWFRQKPGQSPQRLIYYISRFHSGVPDRFSGSGSGTDFTLRISRVEADDTGVYYCQQSKTLPYTFGAGTKLEIK
notes: Point mutant of canE3M65 as full IgG
- Kd [1]: 0.0061 nM
- Kd [2]: 0.138 nM
- Kd [3]: 1.69 nM
- koff [3]: 4.23e-05 s⁻¹
- kon [3]: 25100 M⁻¹ s⁻¹

B2: LTM construct 38 (HC Y100W, LC D28S, NH31HN, K92D) (antibody, V domains shown)
VH: B1 VH with Y100W, A103G
VL: B1 VL with D28S, N31H, K92D
notes: Point mutant of canE3M65 as full IgG; Constant regions are not restated
- Kd [4]: 2.15 nM

B3: LTM construct 110 (HC Y101W, G103A; LC K92D) (antibody, V domains shown)
VH: B1 VH with Y101W
VL: B1 VL with N32H, K92D
notes: as for B1
- Kd [1]: 0.942 nM
- Kd [2]: 0.00326 nM

B4: SSM-13 (LC SSMwtLCR53S, HC SSMwtHCG31Q) (antibody, V domains shown)
VH: B1 VH with G31Q, A103G
VL: B1 VL with N32H, R53S
- Kd [3]: 311 nM
- koff [3]: 0.00241 s⁻¹
- kon [3]: 7750 M⁻¹ s⁻¹

B5: SSM-19 (LC SSMwtLCR53S, HC SSMwtHCD54T, L63I) (antibody, V domains shown)
VH: B1 VH with D54T, L63I, A103G
VL: B1 VL with N32H, R53S
- Kd [3]: 37.4 nM
- koff [3]: 0.00164 s⁻¹
- kon [3]: 43800 M⁻¹ s⁻¹

B6: LTM construct 111 (HC Y101W, G103A; LC *D28S, NH31HN, S91Y) (antibody, V domains shown)
VH: B1 VH with Y101W
VL: B1 VL with D28S, N31H, S91Y
notes: The '*' is not explained
- Kd [1]: 0.0288 nM
- Kd [2]: 0.146 nM

B7: SSM-36 (LC SSM135LCR53S, HC SSM135HCG31E) (antibody, V domains shown)
VH: B1 VH with G31E
VL: B1 VL with R53S
notes: Both chains are built on the LTM135 template (HC G103A, LC H32N)
- Kd [3]: 40.2 nM
- koff [3]: 0.00033 s⁻¹
- kon [3]: 8200 M⁻¹ s⁻¹

B8: LTM construct 36 (HC Y100W, LC K92D) (antibody, V domains shown)
VH: B1 VH with Y100W, A103G
VL: B1 VL with N32H, K92D
notes: as for B2
- Kd [4]: 5.5 nM

B9: SSM-22 (LC SSMwtLCR53S, HC SSMwtHCD54T, G31E) (antibody, V domains shown)
VH: B1 VH with G31E, D54T, A103G
VL: B1 VL with N32H, R53S
- Kd [3]: 249 nM
- koff [3]: 0.000296 s⁻¹
- kon [3]: 1190 M⁻¹ s⁻¹

B10: SSM-34 (LC SSM135LCR53S, HC135 (G103A)) (antibody, V domains shown)
VH: B1 VH
VL: B1 VL with R53S
notes: The light chain is the LTM135 template (E3M H32N) plus R53S
- Kd [3]: 3.08 nM
- koff [3]: 0.000192 s⁻¹
- kon [3]: 62400 M⁻¹ s⁻¹

B11: SSM-2 (LC E3M, HC SSMwtHCG31Q) (antibody, V domains shown)
VH: B1 VH with G31Q, A103G
VL: B1 VL with N32H
notes: IgG expressed in HEK293; constant regions are not restated
- Kd [3]: 14.2 nM
- koff [3]: 0.000114 s⁻¹
- kon [3]: 8080 M⁻¹ s⁻¹

B12: LTM construct 37 (HC Y100W, LC *D28S, NH31HN, S91Y) (antibody, V domains shown)
VH: B1 VH with Y100W, A103G
VL: B1 VL with D28S, N31H, S91Y
notes: as for B1
- Kd [4]: 1.91 nM

B13: SSM57 (CAN-SSM57-VH, CAN-SSME3M-VL) (antibody, V domains shown)
VH: B1 VH with G31Q, Y101W
VL: B1 VL with D28S, R53S, K92H
notes: also called PF 06442590; PF-06442591
- EC50, pERK inhibition, PC-12 (Rat Neuronal), pre-incubation 1 hour, 2/23/11 (SSM57) [5]: 1.08 nM
- EC50, pERK inhibition, PC-12 (Rat Neuronal), pre-incubation 1 hour, 3/26/11 (SSM57) [5]: 0.65 nM
- EC50, pERK inhibition, huTrkA (CHO), pre-incubation 1 hour, 3/26/11 (SSM57) [5]: 0.85 nM
- EC50, pERK inhibition, huTrkA (CHO), pre-incubation 1 hour, 3/31/11 (SSM57) [5]: 0.86 nM
- EC50, pERK inhibition, huTrkA (CHO), pre-incubation 6 hour, 3/31/11 (SSM57) [5]: 0.73 nM
- Fold Potency Difference versus RN911, pERK inhibition, PC-12 (Rat Neuronal), pre-incubation 1 hour, 2/23/11 (SSM57) [5]: 1.6 fold
- Fold Potency Difference versus RN911, pERK inhibition, PC-12 (Rat Neuronal), pre-incubation 1 hour, 3/26/11 (SSM57) [5]: 1.4 fold
- Fold Potency Difference versus RN911, pERK inhibition, huTrkA (CHO), pre-incubation 1 hour, 3/26/11 (SSM57) [5]: 1.8 fold
- Fold Potency Difference versus RN911, pERK inhibition, huTrkA (CHO), pre-incubation 1 hour, 3/31/11 (SSM57) [5]: 1.4 fold
- Fold Potency Difference versus RN911, pERK inhibition, huTrkA (CHO), pre-incubation 6 hour, 3/31/11 (SSM57) [5]: 1.3 fold
- Ki [6]: 4.2 nM

B14: LTM construct 32 (HC Y100W, LC D28S) (antibody, V domains shown)
VH: B1 VH with Y100W, A103G
VL: B1 VL with D28S, N32H
notes: Point mutant of canE3M65, converted into full IgG and expressed in HEK293; The canine constant regions are not restated
- Kd [4]: 2.25 nM

B15: SSM58 (CAN-SSM58-VH, CAN-SSME3M-VL) (antibody, V domains shown)
VH: B1 VH with G31E, Y101W
VL: B1 VL with D28S, R53S, K92H
- EC50, pERK inhibition, PC-12 (Rat Neuronal), pre-incubation 1 hour, 2/23/11 (SSM58) [5]: 1.05 nM
- EC50, pERK inhibition, PC-12 (Rat Neuronal), pre-incubation 1 hour, 3/26/11 (SSM58) [5]: 0.65 nM
- EC50, pERK inhibition, huTrkA (CHO), pre-incubation 1 hour, 3/26/11 (SSM58) [5]: 0.79 nM
- EC50, pERK inhibition, huTrkA (CHO), pre-incubation 1 hour, 3/31/11 (SSM58) [5]: 0.86 nM
- EC50, pERK inhibition, huTrkA (CHO), pre-incubation 6 hour, 3/31/11 (SSM58) [5]: 0.72 nM
- Fold Potency Difference versus RN911, pERK inhibition, PC-12 (Rat Neuronal), pre-incubation 1 hour, 2/23/11 (SSM58) [5]: 1.6 fold
- Fold Potency Difference versus RN911, pERK inhibition, PC-12 (Rat Neuronal), pre-incubation 1 hour, 3/26/11 (SSM58) [5]: 1.4 fold
- Fold Potency Difference versus RN911, pERK inhibition, huTrkA (CHO), pre-incubation 1 hour, 3/26/11 (SSM58) [5]: 1.7 fold
- Fold Potency Difference versus RN911, pERK inhibition, huTrkA (CHO), pre-incubation 1 hour, 3/31/11 (SSM58) [5]: 1.4 fold
- Fold Potency Difference versus RN911, pERK inhibition, huTrkA (CHO), pre-incubation 6 hour, 3/31/11 (SSM58) [5]: 1.3 fold
- Ki [6]: 4.2 nM

B16: SSM66 (CAN-SSM66-VH, CAN-SSME3M-VL) (antibody, V domains shown)
VH: B1 VH with G31E, D54T, Y101W
VL: B1 VL with D28S, R53S, K92H
- EC50, pERK inhibition, PC-12 (Rat Neuronal), pre-incubation 1 hour, 2/23/11 (SSM66) [5]: 1.45 nM
- EC50, pERK inhibition, PC-12 (Rat Neuronal), pre-incubation 1 hour, 3/26/11 (SSM66) [5]: 0.71 nM
- EC50, pERK inhibition, huTrkA (CHO), pre-incubation 1 hour, 3/26/11 (SSM66) [5]: 0.76 nM
- EC50, pERK inhibition, huTrkA (CHO), pre-incubation 1 hour, 3/31/11 (SSM66) [5]: 0.94 nM
- EC50, pERK inhibition, huTrkA (CHO), pre-incubation 6 hour, 3/31/11 (SSM66) [5]: 0.69 nM
- Fold Potency Difference versus RN911, pERK inhibition, PC-12 (Rat Neuronal), pre-incubation 1 hour, 2/23/11 (SSM66) [5]: 2.2 fold
- Fold Potency Difference versus RN911, pERK inhibition, PC-12 (Rat Neuronal), pre-incubation 1 hour, 3/26/11 (SSM66) [5]: 1.5 fold
- Fold Potency Difference versus RN911, pERK inhibition, huTrkA (CHO), pre-incubation 1 hour, 3/26/11 (SSM66) [5]: 1.6 fold
- Fold Potency Difference versus RN911, pERK inhibition, huTrkA (CHO), pre-incubation 1 hour, 3/31/11 (SSM66) [5]: 1.5 fold
- Fold Potency Difference versus RN911, pERK inhibition, huTrkA (CHO), pre-incubation 6 hour, 3/31/11 (SSM66) [5]: 1.2 fold
- Ki [6]: 4.5 nM

B17: LTM construct 39 (HC Y100W, LC D28S, S91Y) (antibody, V domains shown)
VH: B1 VH with Y100W, A103G
VL: B1 VL with D28S, N32H, S91Y
notes: as for B2
- binding result [4]: no binding

B18: LTM construct 33 (HC Y100W, LC *D28S, NH31HN) (antibody, V domains shown)
VH: B1 VH with Y100W, A103G
VL: B1 VL with D28S, N31H
notes: as for B1
- binding result [4]: no binding

B19: SSM-3 (LC E3M, HC SSMwtHCG31E) (antibody, V domains shown)
VH: B1 VH with G31E, A103G
VL: B1 VL with N32H
- Kd [3]: 41.4 nM
- koff [3]: 0.000167 s⁻¹
- kon [3]: 4040 M⁻¹ s⁻¹

B20: SSM-17 (LC SSMwtLCR53S, HC SSMwtHCD54T) (antibody, V domains shown)
VH: B1 VH with D54T, A103G
VL: B1 VL with N32H, R53S
- Kd [3]: 69.1 nM
- koff [3]: 0.0014 s⁻¹
- kon [3]: 20300 M⁻¹ s⁻¹

B21: SSM-8 (LC E3M, HC SSMwtHCD54T, L63I) (antibody, V domains shown)
VH: B1 VH with D54T, L63I, A103G
VL: B1 VL with N32H
- Kd [3]: 41.8 nM
- koff [3]: 0.000173 s⁻¹
- kon [3]: 4130 M⁻¹ s⁻¹

B22: LTM construct 133 (HC G103A, LC K92H) (antibody, V domains shown)
VH: B1 VH
VL: B1 VL with N32H, K92H
notes: as for B1
- Kd [1]: 0.011 nM
- Kd [2]: 0.00133 nM

B23: LTM construct 112 (HC Y101W, G103A; LC D28S, NH31HN, K92D) (antibody, V domains shown)
VH: B1 VH with Y101W
VL: B1 VL with D28S, N31H, K92D
notes: as for B1
- Kd [1]: 0.0152 nM
- Kd [2]: 0.00165 nM

B24: SSM-14 (LC SSMwtLCR53S, HC SSMwtHCG31E) (antibody, V domains shown)
VH: B1 VH with G31E, A103G
VL: B1 VL with N32H, R53S
- Kd [3]: 23.6 nM
- koff [3]: 0.00812 s⁻¹
- kon [3]: 344000 M⁻¹ s⁻¹
